Source: US20240124553A1

Tests used:
Experiment in all cases: flow cytometry, transfected 293T cells
[1] = target: CHIKV E2-E1 envelope glycoproteins (strain S27), E2 mutant D59A (chikungunya virus strain S27) (UniProt Q8JUX5)
[2] = target: CHIKV E2-E1 envelope glycoproteins (strain S27), E2 mutant N39A (chikungunya virus strain S27) (UniProt Q8JUX5)
[3] = target: CHIKV E2-E1 envelope glycoproteins (strain S27), E2 mutant V113A (chikungunya virus strain S27) (UniProt Q8JUX5)
[4] = target: CHIKV E2-6K-E1 envelope proteins (strain S27) with E2 C201A (Chikungunya virus strain S27) (UniProt Q8JUX5)
[5] = target: CHIKV E2-6K-E1 envelope proteins (strain S27) with E2 C203A (Chikungunya virus strain S27) (UniProt Q8JUX5)
[6] = target: CHIKV E2-6K-E1 envelope proteins (strain S27) with E2 G186A (Chikungunya virus strain S27) (UniProt Q8JUX5)
[7] = target: CHIKV E2-6K-E1 envelope proteins (strain S27) with E2 G209A (Chikungunya virus strain S27) (UniProt Q8JUX5)
[8] = target: CHIKV E2-6K-E1 envelope proteins (strain S27) with E2 I190A (Chikungunya virus strain S27) (UniProt Q8JUX5)
[9] = target: CHIKV E2-6K-E1 envelope proteins (strain S27) with E2 I211A (Chikungunya virus strain S27) (UniProt Q8JUX5)
[10] = target: CHIKV E2-6K-E1 envelope proteins (strain S27) with E2 K189A (Chikungunya virus strain S27) (UniProt Q8JUX5)
[11] = target: CHIKV E2-6K-E1 envelope proteins (strain S27) with E2 K200A (Chikungunya virus strain S27) (UniProt Q8JUX5)
[12] = target: CHIKV E2-6K-E1 envelope proteins (strain S27) with E2 K215A (Chikungunya virus strain S27) (UniProt Q8JUX5)
[13] = target: CHIKV E2-6K-E1 envelope proteins (strain S27) with E2 L180A (Chikungunya virus strain S27) (UniProt Q8JUX5)
[14] = target: CHIKV E2-6K-E1 envelope proteins (strain S27) with E2 L210A (Chikungunya virus strain S27) (UniProt Q8JUX5)
[15] = target: CHIKV E2-6K-E1 envelope proteins (strain S27) with E2 N187A (Chikungunya virus strain S27) (UniProt Q8JUX5)
[16] = target: CHIKV E2-6K-E1 envelope proteins (strain S27) with E2 N193A (Chikungunya virus strain S27) (UniProt Q8JUX5)
[17] = target: CHIKV E2-6K-E1 envelope proteins (strain S27) with E2 N202A (Chikungunya virus strain S27) (UniProt Q8JUX5)
[18] = target: CHIKV E2-6K-E1 envelope proteins (strain S27) with E2 N218A (Chikungunya virus strain S27) (UniProt Q8JUX5)
[19] = target: CHIKV E2-6K-E1 envelope proteins (strain S27) with E2 N219A (Chikungunya virus strain S27) (UniProt Q8JUX5)
[20] = target: CHIKV E2-6K-E1 envelope proteins (strain S27) with E2 Q183A (Chikungunya virus strain S27) (UniProt Q8JUX5)
[21] = target: CHIKV E2-6K-E1 envelope proteins (strain S27) with E2 Q184A (Chikungunya virus strain S27) (UniProt Q8JUX5)
[22] = target: CHIKV E2-6K-E1 envelope proteins (strain S27) with E2 R198A (Chikungunya virus strain S27) (UniProt Q8JUX5)
[23] = target: CHIKV E2-6K-E1 envelope proteins (strain S27) with E2 S182A (Chikungunya virus strain S27) (UniProt Q8JUX5)
[24] = target: CHIKV E2-6K-E1 envelope proteins (strain S27) with E2 S194A (Chikungunya virus strain S27) (UniProt Q8JUX5)
[25] = target: CHIKV E2-6K-E1 envelope proteins (strain S27) with E2 S206A (Chikungunya virus strain S27) (UniProt Q8JUX5)
[26] = target: CHIKV E2-6K-E1 envelope proteins (strain S27) with E2 T191A (Chikungunya virus strain S27) (UniProt Q8JUX5)
[27] = target: CHIKV E2-6K-E1 envelope proteins (strain S27) with E2 T196A (Chikungunya virus strain S27) (UniProt Q8JUX5)
[28] = target: CHIKV E2-6K-E1 envelope proteins (strain S27) with E2 V188A (Chikungunya virus strain S27) (UniProt Q8JUX5)
[29] = target: CHIKV E2-6K-E1 envelope proteins (strain S27) with E2 V192A (Chikungunya virus strain S27) (UniProt Q8JUX5)
[30] = target: CHIKV E2-6K-E1 envelope proteins (strain S27) with E2 V197A (Chikungunya virus strain S27) (UniProt Q8JUX5)
[31] = target: CHIKV E2-6K-E1 envelope proteins (strain S27) with E2 V216A (Chikungunya virus strain S27) (UniProt Q8JUX5)
[32] = target: CHIKV E2-6K-E1 envelope proteins (strain S27) with E2 Y199A (Chikungunya virus strain S27) (UniProt Q8JUX5)

With CHIKV mAb IM-CKV065 (antibody) as the substance, how does the Binding Reactivity (% WT) [1] read?
The Binding Reactivity (% WT) was 72.8 % WT.

What about the Binding Reactivity (% WT) [2] of the same substance?
Its Binding Reactivity (% WT) is 120 % WT.

And the Binding Reactivity (% WT) [3]?
The Binding Reactivity (% WT) was 70.4 % WT.

With “Mxra8-Fc (mouse Mxra8 extracellular domain fused to mouse IgG2b Fc) (Fc fusion)” as the substance, how does the Binding Reactivity (% WT) [4] read?
Its Binding Reactivity (% WT) is 9.6 % WT.

What about the Binding Reactivity (% WT) [5] of the same substance?
The Binding Reactivity (% WT) was 10.4 % WT.

And the Binding Reactivity (% WT) [6]?
The Binding Reactivity (% WT) was 108 % WT.

And the Binding Reactivity (% WT) [7]?
Its Binding Reactivity (% WT) is 77.9 % WT.

What about the Binding Reactivity (% WT) [8] of the same substance?
Its Binding Reactivity (% WT) is 9.4 % WT.

And the Binding Reactivity (% WT) [9]?
The Binding Reactivity (% WT) was 81.1 % WT.

What about the Binding Reactivity (% WT) [10] of the same substance?
Its Binding Reactivity (% WT) is 156 % WT.

And the Binding Reactivity (% WT) [11]?
Its Binding Reactivity (% WT) is 75.5 % WT.

And the Binding Reactivity (% WT) [12]?
The Binding Reactivity (% WT) was 106 % WT.

And the Binding Reactivity (% WT) [13]?
The Binding Reactivity (% WT) was 57 % WT.

And the Binding Reactivity (% WT) [14]?
Its Binding Reactivity (% WT) is 70.1 % WT.

And the Binding Reactivity (% WT) [15]?
Its Binding Reactivity (% WT) is 90.5 % WT.

And the Binding Reactivity (% WT) [16]?
The Binding Reactivity (% WT) was 120 % WT.

What about the Binding Reactivity (% WT) [17] of the same substance?
The Binding Reactivity (% WT) was 80.6 % WT.

What about the Binding Reactivity (% WT) [18] of the same substance?
The Binding Reactivity (% WT) was 56.5 % WT.

What about the Binding Reactivity (% WT) [19] of the same substance?
The Binding Reactivity (% WT) was 66.6 % WT.

And the Binding Reactivity (% WT) [20]?
The Binding Reactivity (% WT) was 96.1 % WT.

And the Binding Reactivity (% WT) [21]?
Its Binding Reactivity (% WT) is 130 % WT.

And the Binding Reactivity (% WT) [22]?
Its Binding Reactivity (% WT) is 74 % WT.

And the Binding Reactivity (% WT) [23]?
Its Binding Reactivity (% WT) is 70.9 % WT.

What about the Binding Reactivity (% WT) [24] of the same substance?
The Binding Reactivity (% WT) was 87 % WT.

And the Binding Reactivity (% WT) [25]?
The Binding Reactivity (% WT) was 52.2 % WT.

What about the Binding Reactivity (% WT) [26] of the same substance?
Its Binding Reactivity (% WT) is 87.4 % WT.

And the Binding Reactivity (% WT) [27]?
The Binding Reactivity (% WT) was 86.6 % WT.

What about the Binding Reactivity (% WT) [28] of the same substance?
Its Binding Reactivity (% WT) is 55.2 % WT.

And the Binding Reactivity (% WT) [29]?
The Binding Reactivity (% WT) was 56.9 % WT.

And the Binding Reactivity (% WT) [30]?
The Binding Reactivity (% WT) was 33.9 % WT.

What about the Binding Reactivity (% WT) [31] of the same substance?
Its Binding Reactivity (% WT) is 82.9 % WT.

And the Binding Reactivity (% WT) [32]?
The Binding Reactivity (% WT) was 15.9 % WT.

What about the Binding Reactivity (% WT) [1] of the same substance?
The Binding Reactivity (% WT) was 78.9 % WT.

What about the Binding Reactivity (% WT) [2] of the same substance?
The Binding Reactivity (% WT) was 91.9 % WT.

And the Binding Reactivity (% WT) [3]?
Its Binding Reactivity (% WT) is 78 % WT.

CHIKV mAb C9 (antibody) was tested. Which Binding Reactivity (% WT) [1] did it give?
The Binding Reactivity (% WT) was 71.8 % WT.

What about the Binding Reactivity (% WT) [2] of the same substance?
Its Binding Reactivity (% WT) is 108 % WT.

What about the Binding Reactivity (% WT) [3] of the same substance?
Its Binding Reactivity (% WT) is 81.8 % WT.

Which results are given for CHIKV mAb IM-CKV063 (antibody)?
Binding Reactivity (% WT) [1]: 81.1 % WT; Binding Reactivity (% WT) [2]: 120 % WT; Binding Reactivity (% WT) [3]: 79.8 % WT

CHIKV mAb CHKV-88 (antibody) was tested. Which Binding Reactivity (% WT) [1] did it give?
Its Binding Reactivity (% WT) is 86.1 % WT.

What about the Binding Reactivity (% WT) [2] of the same substance?
Its Binding Reactivity (% WT) is 124 % WT.

And the Binding Reactivity (% WT) [3]?
The Binding Reactivity (% WT) was 112 % WT.
